Key:
[1] = target: T1, human serum albumin (Homo sapiens, UniProt P02768); experiment: Elution from immobilized human serum albumin column; shift in retention time with glucose in eluent; type: binding; details: retention time with no glucose vs 50 mM glucose in eluent, HSA column
T1 construct: purchased Chromtech Inc HSA 50.3 column
Protocol: The glucose sensitivity of insulin albumin binding can be determined by tuning glucose levels in the elution buffer and determine the shift in retention time as a function of the glucose concentration, table 1 below.
T 37° C., flow 0.7 mL/min, 20 uL of 10 uM samples, UV monitor 220 nm.
Compounds marked with an asterix were eluted with a gradient to 70% buffer B.

[2] = rat, in vivo, iv
[3] = pH 7.4, 37° C., gradient to 50% buffer B

Row | Substance | Δ Rt ([1]; marked *: eluted with a gradient to 70% buffer B) [min] | Δ Rt [1, 3] [min] | elimination compared with insulin of example 24 [2]
1 | A22M-15-(3,5-Diboronobenzoylamino)pentadecanoyl B29M-15-(3,5-diboronobenzoylamino)pentadecandioyl A22K desB30 Human Insulin [Example 16] | 0.7 | – | –
2 | B29M-{4-[16-(3-Boronobenzenesulfonylamino)hexadecanoylsulfamoyl]butanoyl} desB30 Human Insulin [Example 14] | – | 0.8 | –
3 | B29N^ε-16-(2,3-Difluoro-4-boronobenzoylamino)hexadecanoyl A14E B25H des B30 Human Insulin [Example 22] | – | 1.5 | eliminated faster
4 | B29N^ε-16-(2,3-Difluoro-4-boronobenzoylamino)hexadecanoyl desB30 Human Insulin [Example 6] | – | 2.8 | –
5 | B29N^ε-16-(2,3-Difluoro-4-boronobenzoylamino)hexadecanoyl-γ-L-glutamyl desB30 Human Insulin [Example 4] | – | 1.8 | –
6 | B29N^ε-16-(2,6-Difluoro-4-boronobenzoylamino)hexadecanonyl desB30 Human Insulin [Example 9] | – | 2.5 | –

— US20210024604A1, “NOVEL INSULIN DERIVATIVES” (Novo Nordisk A/S, priority 2009, published 2021)
